# B1: Myc-USP5 [not stated] / Flag-IRF3 [not stated] (parent complex)
# chain 1: MAELSEEALLSVLPTIRVPKAGDRVHKDECAFSFDTPESEGGLYICMNTFLGFGKQYVERHFNKTGQRVYLHLRRTRRPKEEDPATGTGDPPRKKPTRLAIGVEGGFDLSEEKFELDEDVKIVILPDYLEIARDGLGGLPDIVRDRVTSAVEALLSADSASRKQEVQAWDGEVRQVSKHAFSLKQLDNPARIPPCGWKCSKCDMRENLWLNLTDGSILCGRRYFDGSGGNNHAVEHYRETGYPLAVKLGTITPDGADVYSYDEDDMVLDPSLAEHLSHFGIDMLKMQKTDKTMTELEIDMNQRIGEWELIQESGVPLKPLFGPGYTGIRNLGNSCYLNSVVQVLFSIPDFQRKYVDKLEKIFQNAPTDPTQDFSTQVAKLGHGLLSGEYSKPVPESGDGERVPEQKEVQDGIAPRMFKALIGKGHPEFSTNRQQDAQEFFLHLINMVERNCRSSENPNEVFRFLVEEKIKCLATEKVKYTQRVDYIMQLPVPMDAALNKEELLEYEEKKRQAEEEKMALPELVRAQVPFSSCLEAYGAPEQVDDFWSTALQAKSVAVKTTRFASFPDYLVIQIKKFTFGLDWVPKKLDVSIEMPEELDISQLRGTGLQPGEEELPDIAPPLVTPDEPKGSLGFYGNEDEDSFCSPHFSSPTSPMLDESVIIQLVEMGFPMDACRKAVYYTGNSGAEAAMNWVMSHMDDPDFANPLILPGSSGPGSTSAAADPPPEDCVTTIVSMGFSRDQALKALRATNNSLERAVDWIFSHIDDLDAEAAMDISEGRSAADSISESVPVGPKVRDGPGKYQLFAFISHMGTSTMCGHYVCHIKKEGRWVIYNDQKVCASEKPPKDLGYIYFYQRVAS
# chain 2: MGTPKPRILPWLVSQLDLGQLEGVAWVNKSRTRFRIPWKHGLRQDAQQEDFGIFQAWAEATGAYVPGRDKPDLPTWKRNFRSALNRKEGLRLAEDRSKDPHDPHKIYEFVNSGVGDFSQPDTSPDTNGGGSTSDTQEDILDELLGNMVLAPLPDPGPPSLAVAPEPCPQPLRSPSLDNPTPFPNLGPSENPLKRLLVPGEEWEFEVTAFYRGRQVFQQTISCPEGLRLVGSEVGDRTLPGWPVTLPDPGMSLTDRGVMSYVRHVLSCLGGGLALWRAGQWLWAQRLGHCHTYWAVSEELLPNSGHGPDGEVPKDKEGGVFDLGPFIVDLITFTEGSGRSPRYALWFCVGESWPQDQPWTKRLVMVKVVPTCLRALVEMARVGGASSLENTVDLHISNSHPLSLTSDQYKAYLQDLVEGMDFQGPGES
# Variants of: B1
# Test: in situ PLA; HEK293T cells co-transfected for 24 h, then infected with SeV (0.1 MOI) for 6 h; parent: 12; read off a plot
row,Variant,response [complex number/cell]
1,chain 1 C335A,~12
